From patent US20080058263A1 (published 2008)
Where a chain is given by its changes, count along the chain named.

T1: VEGFR-3-Fc (UniProt P35916 25-328)
T1 construct: domain: first three Ig domains; conditioned supernatant of 293T cells; also called VEGFR-3-Fc fusion protein; not shown: Fc fragment of the pIg vector
T1 sequence (looked up): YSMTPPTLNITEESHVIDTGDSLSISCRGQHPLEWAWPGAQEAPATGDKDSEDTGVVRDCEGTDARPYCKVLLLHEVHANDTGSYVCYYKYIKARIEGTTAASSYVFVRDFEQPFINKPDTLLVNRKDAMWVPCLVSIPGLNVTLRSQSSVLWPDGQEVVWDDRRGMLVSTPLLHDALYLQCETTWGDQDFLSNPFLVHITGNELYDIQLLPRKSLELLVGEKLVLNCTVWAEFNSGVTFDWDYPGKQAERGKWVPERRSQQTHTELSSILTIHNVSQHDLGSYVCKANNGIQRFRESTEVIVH

B1: 44-2 (ligand)
chain: AHYNTEILKFMDVYQRSYCHPREVCIDVGKEFGVATNTFFKPSCVPLMRCGGCCNDEGLECMNTSTSYLSKTLFEIKPHQGQHIGEMSFLQHNKCECRPKKD
B2: 64-2 (ligand)
chain: B1 chain with A1G, H2Q, Y3N, N4H, T5H, I7V, L8V
B3: 44-8 (ligand)
chain: B1 chain with D56S, E60Q, L90A, Q91N, N93T, K94S, E96R, R98M, P99S, K101L
B4: 64-4 (ligand)
chain: B1 chain with A1G, H2Q, Y3N, N4H, T5H, I7V, L8V, D56S, E60Q
B5: 44-4 (ligand)
chain: B1 chain with D56S, E60Q
B6: 54-1 (ligand)
chain: AHYNTEILKSIDNEWRKTQCMPIETLVDIFQEFGVATNTFFKPSCVPLMRCGGCCNDEGLECVPTEESNITMQIMRIKPHQGQHIGEMSFLQHNKCECRPKKD
B7: 54-3 (ligand)
chain: B6 chain with D57S, E61Q
B8: 43-14 (ligand)
chain: AHYNTEILKFMDVYQRSYCHPREVCIDVGKEYPDEIEYIFKPPCVSVYRCGGCCNDEGLECMNTSTSYLSKTLFEITVPLSQGPKPVTISFANHTSCRCMSKLD
B9: 43-16 (ligand)
chain: B8 chain with D56S, E60Q
B10: 54-10 (ligand)
chain: AHYNTEILKSIDNEWRKTQCMPIETLVDIFQEFGVATNTFFKPSCVPLMRCGGCCNDEGLECMNTSTSYLSKTLFEITVPLSQGPKPVTISFLQHNKCECRPKKD
B11: 44-9 (ligand)
chain: AHYNTEILKFMDVYQRSYCHPREVCIDVGKEFGVATNTFFKPSCVPLMRCGGCCNDEGLECVPTEESNITMQIMRITVPLSQGPKPVTISFLQHNKCECRPKKD
B12: 44-13 (ligand)
chain: B11 chain with L92A, Q93N, N95T, K96S, E98R, R100M, P101S, K103L
B13: 64-9 (ligand)
chain: B11 chain with A1G, H2Q, Y3N, N4H, T5H, I7V, L8V
B14: 44-15 (ligand)
chain: B11 chain with D56S, E60Q, L92A, Q93N, N95T, K96S, E98R, R100M, P101S, K103L
B15: 44-11 (ligand)
chain: B11 chain with D56S, E60Q
B16: 64-11 (ligand)
chain: B11 chain with A1G, H2Q, Y3N, N4H, T5H, I7V, L8V, D56S, E60Q
B17: 44-10 (ligand)
chain: AHYNTEILKFMDVYQRSYCHPREVCIDVGKEFGVATNTFFKPSCVPLMRCGGCCNDEGLECMNTSTSYLSKTLFEITVPLSQGPKPVTISFLQHNKCECRPKKD
B18: 44-12 (ligand)
chain: B17 chain with D56S, E60Q
B19: 44-16 (ligand)
chain: B17 chain with D56S, E60Q, L92A, Q93N, N95T, K96S, E98R, R100M, P101S, K103L
B20: 54-9 (ligand)
chain: AHYNTEILKSIDNEWRKTQCMPIETLVDIFQEFGVATNTFFKPSCVPLMRCGGCCNDEGLECVPTEESNITMQIMRITVPLSQGPKPVTISFLQHNKCECRPKKD
B21: 54-11 (ligand)
chain: B20 chain with D57S, E61Q
B22: 54-15 (ligand)
chain: B20 chain with D57S, E61Q, L93A, Q94N, N96T, K97S, E99R, R101M, P102S, K104L
B23: 54-13 (ligand)
chain: B20 chain with L93A, Q94N, N96T, K97S, E99R, R101M, P102S, K104L
B24: 64-1 (ligand)
chain: GQNHHEVVKFMDVYQRSYCHPREVCIDVGKEFGVATNTFFKPSCVPLMRCGGCCNDEGLECVPTEESNITMQIMRIKPHQGQHIGEMSFLQHNKCECRPKKD
B25: 64-5 (ligand)
chain: B24 chain with L90A, Q91N, N93T, K94S, E96R, R98M, P99S, K101L
B26: 64-7 (ligand)
chain: B24 chain with D56S, E60Q, L90A, Q91N, N93T, K94S, E96R, R98M, P99S, K101L
B27: 64-3 (ligand)
chain: B24 chain with D56S, E60Q
B28: 64-6 (ligand)
chain: GQNHHEVVKFMDVYQRSYCHPREVCIDVGKEFGVATNTFFKPSCVPLMRCGGCCNDEGLECMNTSTSYLSKTLFEIKPHQGQHIGEMSFANHTSCRCMSKLD

target: T2, VEGFR-1-Fc (UniProt P17948 27-338); assay: receptor-Fc IP
T2 construct: domain: first three Ig domains; expressed in Drosophila S2 cells, purified on Protein A sepharose; also called VEGFR-1-Fc fusion protein; not shown: Fc fragment from the Signal-pIgPlus vector
In short: (§1)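 fusion protein at 400 ng/ml in an IP mix (PBS, 1.5% BSA, 0.06% Tween 20, 3 μg/ml heparin) was combined with sample supernatant at a 1:2 ratio. Bound ligand captured by immunoprecipitation with pentahistidine antibody.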

T2 sequence (P17948 27-338): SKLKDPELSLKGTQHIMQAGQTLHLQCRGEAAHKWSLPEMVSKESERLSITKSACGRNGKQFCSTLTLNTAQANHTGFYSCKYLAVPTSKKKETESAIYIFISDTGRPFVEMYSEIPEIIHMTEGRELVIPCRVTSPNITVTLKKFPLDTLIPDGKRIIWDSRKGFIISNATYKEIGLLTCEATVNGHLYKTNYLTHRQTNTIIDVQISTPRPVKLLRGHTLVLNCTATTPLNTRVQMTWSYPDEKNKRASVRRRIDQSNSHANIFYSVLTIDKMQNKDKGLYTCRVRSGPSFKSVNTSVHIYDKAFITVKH

Binding result, no binding:
B1
B2
B3
B4
B5
B6
B7
B8
B9
B10
B11
B12
B13
B14
B15
B16
B17
B18
B19
B20
B21
B22
B23
B24
B25
B26
B27
B28

target: T3, VEGFR-2-Fc (UniProt P35968 20-322); assay: receptor-Fc IP
T3 construct: domain: first 3 Ig domains; conditioned supernatant of 293T cells; also called VEGFR-2-Fc fusion protein; not shown: Fc fragment of the pIg vector
In short: as §1

T3 sequence (P35968 20-322): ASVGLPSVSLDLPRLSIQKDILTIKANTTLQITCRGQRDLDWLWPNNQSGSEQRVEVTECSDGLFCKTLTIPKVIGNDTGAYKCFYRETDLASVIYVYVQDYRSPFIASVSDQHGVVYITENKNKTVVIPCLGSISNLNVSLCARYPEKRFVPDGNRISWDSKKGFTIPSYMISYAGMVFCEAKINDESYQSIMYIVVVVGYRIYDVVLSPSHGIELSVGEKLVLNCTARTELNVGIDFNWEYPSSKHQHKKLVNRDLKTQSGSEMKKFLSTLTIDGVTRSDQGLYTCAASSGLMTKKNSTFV

Binding result, no binding:
B1
B2
B3
B4
B5
B6
B7
B8
B9
B10
B11
B12
B13
B14
B15
B16
B17
B18
B19
B20
B21
B22
B23
B24
B25
B26
B27
B28

target: T1, VEGFR-3-Fc; assay: receptor-Fc IP
In short: as §1

Binding result, no binding:
B1
B2
B3
B4
B5
B6
B7
B8
B9
B10
B11
B12
B13
B14
B15
B16
B17
B18
B19
B20
B21
B22
B23
B24
B25
B26
B27
B28
